Data taken from article PMC5382584, “In search of tail-anchored protein machinery in plants: reevaluating the role of arsenite transporters” (Scientific Reports, 2017).
“And” between values parts separate entries of the source, which are not always exact repeats. Equal values may be shown once.

Biological target: the molecule itself
Assay: SEC; preparative size-exclusion chromatography of the purified protein, Superdex-200-16/600GL column; oligomeric state from peak positions

B1: Cr-ArsA2 (C. reinhardtii ArsA2), recombinant, purified (natural protein, UniProt A8IXB8 1-362, looked up)
chain: MAADMPDPTLQNVVDQKELKWIFVGGKGGVGKTTTSSSLAVALAESGTRNRVLIISTDPAHNLSDAFRQKFTKTPTLVNGFTNLFAMEVDPQPDIGEMEQLEWAQDSFLTELAGSIPGIDEAMSFAEVMKQVQTMDYDTIVFDTAPTGHTLRLLNFPTILEKGLSKLVALKGAMGGMMGQVTRMLGGMAGGGEGAADLPDQLLGKVEGMLDVVRKVSAQFKDPLLTTFVAVCIPEFLSLYETERLVQELAKFEIDCRNIVINQIIFPESVGGSRLLDARVRMQQKYLDQFYELYEDFHILQLPLLEEEVRGPEALKAFAVNLLKPYVPAPPTDAAARQAALVSEVAALKKRVAELEAALAKK
notes: ArsA2 of Chlamydomonas reinhardtii, full-length open reading frame, one ATPase domain; pET21 modified with a TEV site between the N-terminal 6His-tag and the polylinker; Seen as dimers and tetramers; also called Dimeric Cr-ArsA2; arsenite transporter ArsA2; source: E. coli BL21 (DE3), purified (Ni-NTA, size-exclusion chromatography)
- stoichiometry N: 2 and 4
